{"source": "patent US20080193971", "proteins": {"B1": {"name": "human lactoferrin (protein)", "chain": "GRRRSVQWCAVSQPEATKCFQWQRNMRKVRGPPVSCIKRDSPIQCIQAIAENRADAVTLDGGFIYEAGLAPYKLRPVAAEVYGTERQPRTHYYAVAVVKKGGSFQLNELQGLKSCHTGLRRTAGWNVPIGTLRPFLNWTGPPEPIEAAVARFFSASCVPGADKGQFPNLCRLCAGTGENKCAFSSQEPYFSYSGAFKCLRDGAGDVAFIRESTVFEDLSDEAERDEYELLCPDNTRKPVDKFKDCHLARVPSHAVVARSVNGKEDAIWNLLRQAQEKFGKDKSPKFQLFGSPSGQKDLLFKDSAIGFSRVPPRIDSGLYLGSGYFTAIQNLRKSEEEVAARRARVVWCAVGEQELRKCNQWSGLSEGSVTCSSASTTEDCIALVLKGEADAMSLDGGYVYTAGKCGLVPVLAENYKSQQSSDPDPNCVDRPVEGYLAVAVVRRSDTSLTWNSVKGKKSCHTAVDRTAGWNIPMGLLFNQTGSCKFDEYFSQSCAPGSDPRSNLCALCIGDEQGENKCVPNSNERYYGYTGAFRCLAENAGDVAFVKDVTVLQNTDGNNNEAWAKDLKLADFALLCLDGKRKPVTEARSCHLAMAPNHAVVSRMDKVERLKQVLLHQQAKFGRNGSDCPDKFCLFQSETKNLLFNDNTECLARLHGKTTYEKYLGPQYVAGITNLKKCSTSPLLEACEFLRK"}}, "key": {"[1]": {"target": "T1, meningococcal protein 287 (purified)", "T1 chain": "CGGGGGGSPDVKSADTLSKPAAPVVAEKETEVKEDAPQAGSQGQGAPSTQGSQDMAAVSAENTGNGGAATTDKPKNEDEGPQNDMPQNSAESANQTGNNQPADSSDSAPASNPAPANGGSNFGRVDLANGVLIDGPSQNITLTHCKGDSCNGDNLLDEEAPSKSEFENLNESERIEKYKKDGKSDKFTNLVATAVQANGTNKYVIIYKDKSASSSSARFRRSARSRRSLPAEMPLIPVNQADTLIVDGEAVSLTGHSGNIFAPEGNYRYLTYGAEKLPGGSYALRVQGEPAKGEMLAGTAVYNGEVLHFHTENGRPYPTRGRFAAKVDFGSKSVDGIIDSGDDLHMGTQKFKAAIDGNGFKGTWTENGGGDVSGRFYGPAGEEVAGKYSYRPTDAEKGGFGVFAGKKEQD"}, "[2]": {"target": "T2, recombinant App (Adhesion and penetration protein)", "T2 chain": "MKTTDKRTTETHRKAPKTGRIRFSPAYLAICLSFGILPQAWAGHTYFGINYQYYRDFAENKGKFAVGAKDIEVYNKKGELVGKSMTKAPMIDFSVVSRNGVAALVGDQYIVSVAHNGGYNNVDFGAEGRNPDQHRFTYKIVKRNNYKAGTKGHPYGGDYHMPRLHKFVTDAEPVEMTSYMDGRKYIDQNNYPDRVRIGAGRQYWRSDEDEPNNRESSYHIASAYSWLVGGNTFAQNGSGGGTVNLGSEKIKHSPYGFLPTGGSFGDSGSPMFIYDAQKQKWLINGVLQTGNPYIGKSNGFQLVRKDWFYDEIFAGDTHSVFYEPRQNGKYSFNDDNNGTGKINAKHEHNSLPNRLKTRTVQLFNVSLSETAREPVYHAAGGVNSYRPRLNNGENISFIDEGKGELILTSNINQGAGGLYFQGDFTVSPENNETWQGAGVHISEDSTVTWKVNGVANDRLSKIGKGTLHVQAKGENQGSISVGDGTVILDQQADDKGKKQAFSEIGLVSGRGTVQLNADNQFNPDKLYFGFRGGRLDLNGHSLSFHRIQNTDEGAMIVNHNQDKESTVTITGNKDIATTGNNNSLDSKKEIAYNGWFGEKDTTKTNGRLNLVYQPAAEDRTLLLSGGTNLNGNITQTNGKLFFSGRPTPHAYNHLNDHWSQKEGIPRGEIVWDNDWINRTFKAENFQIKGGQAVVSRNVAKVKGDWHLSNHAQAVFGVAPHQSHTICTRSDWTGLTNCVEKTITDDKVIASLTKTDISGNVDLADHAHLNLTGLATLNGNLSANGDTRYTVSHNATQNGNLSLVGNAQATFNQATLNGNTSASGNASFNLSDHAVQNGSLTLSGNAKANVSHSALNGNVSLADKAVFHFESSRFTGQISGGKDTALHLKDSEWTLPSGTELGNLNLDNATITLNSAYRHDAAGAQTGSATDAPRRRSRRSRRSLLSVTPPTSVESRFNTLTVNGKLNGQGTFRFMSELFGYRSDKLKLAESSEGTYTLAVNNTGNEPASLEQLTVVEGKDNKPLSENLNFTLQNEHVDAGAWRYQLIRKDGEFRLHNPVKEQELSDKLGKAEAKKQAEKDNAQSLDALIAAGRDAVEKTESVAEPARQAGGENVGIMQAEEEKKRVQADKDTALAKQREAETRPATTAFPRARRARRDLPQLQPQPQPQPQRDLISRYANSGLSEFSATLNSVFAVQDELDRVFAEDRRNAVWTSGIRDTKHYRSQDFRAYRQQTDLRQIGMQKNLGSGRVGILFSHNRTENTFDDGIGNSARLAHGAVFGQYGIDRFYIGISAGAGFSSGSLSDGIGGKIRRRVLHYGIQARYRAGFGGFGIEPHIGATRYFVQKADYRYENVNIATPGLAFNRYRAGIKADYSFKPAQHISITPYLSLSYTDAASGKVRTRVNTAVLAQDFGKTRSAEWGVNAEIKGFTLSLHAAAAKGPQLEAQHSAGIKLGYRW"}, "[3]": {"target": "T3, GNA1870 surface-exposed lipoprotein, Q9JXV4", "T3 chain": "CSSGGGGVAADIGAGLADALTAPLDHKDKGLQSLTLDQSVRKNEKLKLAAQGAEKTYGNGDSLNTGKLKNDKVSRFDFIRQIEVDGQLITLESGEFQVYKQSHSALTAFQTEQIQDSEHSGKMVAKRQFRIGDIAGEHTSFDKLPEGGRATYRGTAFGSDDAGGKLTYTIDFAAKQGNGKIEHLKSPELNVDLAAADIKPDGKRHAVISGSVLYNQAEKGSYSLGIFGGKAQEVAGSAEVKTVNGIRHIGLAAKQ"}}, "data": [{"protein": "B1", "values": [{"measurement": "proteolytic cleavage (SDS-PAGE and western blot with rabbit anti-287)", "setting": "[1]", "result": "Lane 3 shows definite cleavage of protein 287"}, {"measurement": "share of N-terminus RSLPAEMPL in the ~19 kDa cleavage fragment", "setting": "[1]", "result": "RSLPAEMPL (˜30%)"}, {"measurement": "share of N-terminus SLPAEMPLI in the ~19 kDa cleavage fragment", "setting": "[1]", "result": "SLPAEMPLI (˜70%)"}, {"measurement": "proteolytic cleavage (western blot with anti-App)", "setting": "[2]", "result": "the App antigen was cleaved in different fragments"}, {"measurement": "proteolytic degradation on meningococci (western blot with anti-GNA1870)", "setting": "[3]", "result": "lactoferrin treatment under conditions which degrade App had no effect on ONA1870"}]}]}
